Reference: patent publication US20190153111A1 (Novartis, published 2019)
Where “and” joins values, the source holds several entries; their conditions need not be identical. Identical values can stand only once.

How the values were obtained:
Assay in all cases: cell-based or functional assay
human CD40 on cells [1] = biological target: T1, human CD40 on cells (human, UniProt P25942 21-277)
[2] = biological target: rhesus monkey CD40 on cells (rhesus, UniProt F6SNI1 21-278)
[3] = biological target: cynomolgus monkey CD40 on cells (cynomolgus, UniProt G7PG38 21-278)
human CD40 on cells [4] = biological target: T1, human CD40 on cells; remark: listed apart in the source
human CD40 on cells [5] = biological target: T1, human CD40 on cells; remark: listed apart in the source

T1 sequence (P25942 21-277 limits assumed): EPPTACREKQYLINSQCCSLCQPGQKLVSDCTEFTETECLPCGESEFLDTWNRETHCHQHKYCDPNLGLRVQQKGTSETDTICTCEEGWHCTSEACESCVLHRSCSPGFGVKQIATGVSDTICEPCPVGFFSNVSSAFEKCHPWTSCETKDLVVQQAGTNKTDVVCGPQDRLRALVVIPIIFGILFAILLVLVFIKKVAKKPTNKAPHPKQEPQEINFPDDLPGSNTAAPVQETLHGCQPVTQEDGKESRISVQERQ

Inhibition of rCD154-induced proliferation (IC50 PBMCs), human (human CD40 on cells [1]): 0.017 µg/ml and 0.12 µM | Inhibition of rCD154-induced proliferation (IC50 PBMCs), rhesus [2]: 0.026 µg/ml and 0.18 µM | Inhibition of rCD154-induced proliferation (IC50 PBMCs), cynomolgus [3]: 0.01 µg/ml and 0.07 µM | IC50 (read off the curve): inhibition of rCD154-induced CD69 expression on CD20pos B cells, human whole blood (human CD40 on cells [4]): ~0.1 µg/mL | IC50, inhibition of rCD154-induced TNF production by primary monocyte-derived dendritic cells (human CD40 on cells [5]): 0.04 µg/ml and 0.27 nM | IC50, inhibition of rCD154-induced proliferation of human PBMCs (human CD40 on cells [5]): 0.12 nM | IC50, inhibition of rCD154-induced proliferation of human whole blood cultures (human CD40 on cells [5]): 0.024 µg/ml and 0.16 nM | IC50, inhibition of rCD154-induced proliferation of purified human tonsillar B cells (human CD40 on cells [5]): 0.071 µg/ml and 0.47 nM
B1: CFZ533 (antibody, human IgG1, kappa, N297A)
heavy: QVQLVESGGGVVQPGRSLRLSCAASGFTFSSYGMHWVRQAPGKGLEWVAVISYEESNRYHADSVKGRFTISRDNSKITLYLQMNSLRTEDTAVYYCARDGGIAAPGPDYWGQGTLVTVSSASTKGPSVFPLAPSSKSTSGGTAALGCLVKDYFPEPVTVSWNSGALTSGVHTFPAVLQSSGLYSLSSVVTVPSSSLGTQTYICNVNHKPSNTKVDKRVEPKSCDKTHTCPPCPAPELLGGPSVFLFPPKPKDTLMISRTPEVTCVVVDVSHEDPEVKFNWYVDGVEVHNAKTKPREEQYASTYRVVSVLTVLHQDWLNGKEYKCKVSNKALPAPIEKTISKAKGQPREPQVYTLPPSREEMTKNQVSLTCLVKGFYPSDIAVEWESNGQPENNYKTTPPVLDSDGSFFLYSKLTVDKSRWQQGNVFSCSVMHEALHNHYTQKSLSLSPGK
light: DIVMTQSPLSLTVTPGEPASISCRSSQSLLYSNGYNYLDWYLQKPGQSPQVLISLGSNRASGVPDRFSGSGSGTDFTLKISRVEAEDVGVYYCMQARQTPFTFGPGTKVDIRRTVAAPSVFIFPPSDEQLKSGTASVVCLLNNFYPREAKVQWKVDNALQSGNSQESVTEQDSKDSTYSLSSTLTLSKADYEKHKVYACEVTHQGLSSPVTKSFNRGEC
